How the values were obtained:
twst1_human TWIST1 [1] = target: twst1_human TWIST1 (UniProt Q15672)
twst1_human TWIST1 [2] = target: twst1_human TWIST1 (UniProt Q15672); remark: listed apart in the source

Substance | effect of a mutation on the interaction (twst1_human TWIST1 [1]) | effect of a mutation on the interaction (twst1_human TWIST1 [2])
Bromodomain-containing protein 4 (Homo sapiens) (from UniProt O60885-1) H437D | decreasing interaction strength | –
Bromodomain-containing protein 4 (Homo sapiens) (from UniProt O60885-1) D144H | – | increasing interaction strength

— IntAct's records for PubMed 24525235
